We go through 1 molecule from US20230015590A1 (JIANGSU ALPHAMAB BIOPHARMACEUTICALS, published 2023).

The target of this assay is T1, human PD-L1 (WT) (human, UniProt Q9NZQ7 19-127, limits assumed).
T1 construct: also called human PD-L1 N-terminal IgV domain
Briefly: affinity measurement, method not stated.

T1 sequence (Q9NZQ7 19-127 limits assumed): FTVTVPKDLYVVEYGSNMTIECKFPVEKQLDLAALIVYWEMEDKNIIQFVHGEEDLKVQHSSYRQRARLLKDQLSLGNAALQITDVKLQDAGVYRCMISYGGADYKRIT

B1: PD-L1 ISVD-9 (VHH)
VHH: QVQLVESGGGLVQPGGSLRLSCAASGKMSSRRCMAWFRQAPGKERERVAKLLTTSGSTYLADSVKGRFTISRDNSKNTVYLQMNSLRAEDTAVYYCAADSFEDPTCTLVTSSGAFQYWGQGTLVTVSS
notes: also called ISVD specific for PD-L1; aPDL1.9
Regarding B1, the Kd – broadly, the equilibrium constant for the complex coming apart – was found to be 5.92 nM.
